How the values were obtained:
AmyP [1] = biological target: T1, AmyP (uncultured bacterium, UniProt D9MZ14); test: X-ray crystal structure, […] Å; type: binding; conditions: co-crystallised with β-CD, pH 8.5; active site, subsites -2 and -3
T1 construct: gene Amy-1E; full-length residues 1-639 crystallised, 6xHis tag cut by TEV, E. coli BL21(DE3); only residues 1-496 (AmyPΔSBD) seen in crystals, SBD partly degraded

AmyP [2] = biological target: T2, AmyP (uncultured bacterium, UniProt D9MZ14, E221Q); test: X-ray crystal structure, […] Å; type: binding; conditions: co-crystallised with γ-CD, pH 6.0; active site, subsites -1, -2 and -3
T2 construct: gene Amy-1E; full-length residues 1-639 crystallised, 6xHis tag cut by TEV, E. coli BL21(DE3); only residues 1-496 (AmyPΔSBD) seen in crystals, SBD partly degraded

[3] = test system: T3, OC[C@H]1O[C@@H]2O[C@H]3[C@H](O)[C@@H](O)[C@@H](O[C@H]4[C@H](O)[C@@H](O)[C@@H](O[C@H]5[C@H](O)[C@@H](O)[C@@H](O[C@H]6[C@H](O)[C@@H](O)[C@@H](O[C@H]7[C@H](O)[C@@H](O)[C@@H](O[C@H]8[C@H](O)[C@@H](O)[C@@H](O[C@H]9[C@H](O)[C@@H](O)[C@@H](O[C@H]1[C@H](O)[C@H]2O)O[C@@H]9CO)O[C@@H]8CO)O[C@@H]7CO)O[C@@H]6CO)O[C@@H]5CO)O[C@@H]4CO)O[C@@H]3CO; test: reducing sugar assay (copper-bicinchoninate), Michaelis-Menten fit; type: biochemical, uncultured bacterium; conditions: 40 °C, pH 6.5, 20 mM HEPES, 150 mM NaCl, 10 mM CaCl2
T3 construct: SBD-truncated catalytic domain, residues 1-496, N-terminal 6xHis (TEV site)
Source text: (§1) reducing sugar assay (copper-bicinchoninate), Michaelis-Menten fit on AmyPΔSBD

[4] = substrate: OC[C@H]1O[C@@H]2O[C@H]3[C@H](O)[C@@H](O)[C@@H](O[C@H]4[C@H](O)[C@@H](O)[C@@H](O[C@H]5[C@H](O)[C@@H](O)[C@@H](O[C@H]6[C@H](O)[C@@H](O)[C@@H](O[C@H]7[C@H](O)[C@@H](O)[C@@H](O[C@H]8[C@H](O)[C@@H](O)[C@@H](O[C@H]9[C@H](O)[C@@H](O)[C@@H](O[C@H]1[C@H](O)[C@H]2O)O[C@@H]9CO)O[C@@H]8CO)O[C@@H]7CO)O[C@@H]6CO)O[C@@H]5CO)O[C@@H]4CO)O[C@@H]3CO; test: as above; type: biochemical, uncultured bacterium; conditions: 40 °C, pH 6.5, 20 mM HEPES, 150 mM NaCl, 10 mM CaCl2
Source text: as §1

Row | Molecule | Km [4] | kcat [4] | kcat/Km [4] | also measured
1 | OC[C@H]1O[C@H](O[C@H]2[C@H](O)[C@@H](O)C(O)O[C@@H]2CO)[C@H](O)[C@@H](O)[C@@H]1O (some centres unmarked) [maltose] |  |  |  | X-ray crystal structure, 1.95 Å (AmyP [1]): electron density representing a maltose molecule at subsites -2 and -3
2 | OC[C@H]1O[C@H](O[C@H]2[C@H](O)[C@@H](O)[C@@H](O[C@H]3[C@H](O)[C@@H](O)C(O)O[C@@H]3CO)O[C@@H]2CO)[C@H](O)[C@@H](O)[C@@H]1O (some centres unmarked) [maltotriose] |  |  |  | X-ray crystal structure, 2.55 Å (AmyP [2]): electron density representing a maltotriose molecule bound to the active site
3 | AmyPΔSBD (uncultured bacterium; K131A) |  |  |  | Km [3]: 1290 ± 130 µM; kcat [3]: 7.47 ± 0.004 s⁻¹; kcat/Km [3]: 5800 M⁻¹ s⁻¹
4 | AmyPΔSBD (uncultured bacterium; N148A) |  |  |  | Km [3]: 200 ± 30 µM; kcat [3]: 22.59 ± 0.007 s⁻¹; kcat/Km [3]: 113000 M⁻¹ s⁻¹
5 | AmyPΔSBD (uncultured bacterium) (protein, SBD-truncated catalytic domain, residues 1-496, N-terminal 6xHis (TEV site)) MCDSALTAQANDLRIYQVMVESFVNGDDAIGHGTGYGTSHHKGDLQGIIDSLDYIESLGMNAIWLTPIFDSIPVEGQDHWADRLDATGYFTSNYFAVDPRFGTMEQAKELVEKAHEKGLYVFFDGVFGHHKDNVVPSPEGRLPVGENNPVSYPESLAFYQEVATFWIEELKIDGWRLDQAYQVPTEAWTAIRASVDEASKSVTYVNSEGEAVNPLGYMVAEIWNNENYIKETGYGAEGEPALCSAFDFPVRYRVVETFAANENGIGNKGGKWLDEGMNLHRLYPSHAQPNLMLGNHDLVRFGDLLQRGNIASPEQAEYWERHKAALSFQAAYSGPITLYYGEEIGDELEGYAQKVEQDCAVQGLCDDHVARTSANIDGLTVNLNEKQRDLKQYVSQLMTLRAAHPALSRGERTNIVANETVYIDHKQADDDALIYMVSTTADQDTVELKASDIASDGQLVDLLTGKVHSAINGEYQISLAPFEAKFLLIETPSASG | 120 ± 5 µM | 39.58 ± 0.004 s⁻¹ | 323000 M⁻¹ s⁻¹ | 
6 | AmyPΔSBD (uncultured bacterium; N148Y) (protein, SBD-truncated catalytic domain, residues 1-496, N-terminal 6xHis (TEV site)) MCDSALTAQANDLRIYQVMVESFVNGDDAIGHGTGYGTSHHKGDLQGIIDSLDYIESLGMNAIWLTPIFDSIPVEGQDHWADRLDATGYFTSNYFAVDPRFGTMEQAKELVEKAHEKGLYVFFDGVFGHHKDNVVPSPEGRLPVGENYPVSYPESLAFYQEVATFWIEELKIDGWRLDQAYQVPTEAWTAIRASVDEASKSVTYVNSEGEAVNPLGYMVAEIWNNENYIKETGYGAEGEPALCSAFDFPVRYRVVETFAANENGIGNKGGKWLDEGMNLHRLYPSHAQPNLMLGNHDLVRFGDLLQRGNIASPEQAEYWERHKAALSFQAAYSGPITLYYGEEIGDELEGYAQKVEQDCAVQGLCDDHVARTSANIDGLTVNLNEKQRDLKQYVSQLMTLRAAHPALSRGERTNIVANETVYIDHKQADDDALIYMVSTTADQDTVELKASDIASDGQLVDLLTGKVHSAINGEYQISLAPFEAKFLLIETPSASG | 100 ± 9 µM | 26.11 ± 0.01 s⁻¹ | 274000 M⁻¹ s⁻¹ | 
7 | AmyPΔSBD (uncultured bacterium; Y351A) (protein, SBD-truncated catalytic domain, residues 1-496, N-terminal 6xHis (TEV site)) MCDSALTAQANDLRIYQVMVESFVNGDDAIGHGTGYGTSHHKGDLQGIIDSLDYIESLGMNAIWLTPIFDSIPVEGQDHWADRLDATGYFTSNYFAVDPRFGTMEQAKELVEKAHEKGLYVFFDGVFGHHKDNVVPSPEGRLPVGENNPVSYPESLAFYQEVATFWIEELKIDGWRLDQAYQVPTEAWTAIRASVDEASKSVTYVNSEGEAVNPLGYMVAEIWNNENYIKETGYGAEGEPALCSAFDFPVRYRVVETFAANENGIGNKGGKWLDEGMNLHRLYPSHAQPNLMLGNHDLVRFGDLLQRGNIASPEQAEYWERHKAALSFQAAYSGPITLYYGEEIGDELEGAAQKVEQDCAVQGLCDDHVARTSANIDGLTVNLNEKQRDLKQYVSQLMTLRAAHPALSRGERTNIVANETVYIDHKQADDDALIYMVSTTADQDTVELKASDIASDGQLVDLLTGKVHSAINGEYQISLAPFEAKFLLIETPSASG | 2110 ± 90 µM | 25.02 ± 0.006 s⁻¹ | 11900 M⁻¹ s⁻¹ | 

Source: publication PMC5355875, “Crystal structure of a raw-starch-degrading bacterial α-amylase belonging to subfamily 37 of the glycoside hydrolase family GH13” (Scientific Reports, 2017)
